B1: OsCYP72A15: rice cytochrome P450 CYP72A15 gene/polypeptide, amino acid sequence SEQ ID NO:7 (protein, listed as Oryza sativa)
chain: MLMMLGAASQWILAAAAAAAVAALLWLAVSTLEWAWWTPRRLERALRAQGIRGNRYRLFTGDVPENVRLNREARKKPLPLGCHDIIPRVLPMFSKAVEEHGKPSFTWFGPTPRVMISDPESIREVMSNKFGHYGKPKPTRLGKLLASGVVSYEGEKWAKHRRILNPAFHHEKIKRMLPVFSNCCTEMVTRWENSMSIEGMSEVDVWPEFQNLTGDVISKTAFGSSYEEGRRIFQLQAESAERIIQAFRTIFIPGYWFLPTKNNRRLREIEREVSKLLRGIIGKRERAIKNGETSNGDLLGLLVESNMRESNGKAELGMTTDEIIEECKLFYFAGMETTSVLLTWTLIVLSMHPEWQERAREEVLHHFGRTTPDYDSLSRLKIVTMILYEVLRLYPPVVFLTRRTYKEMELGGIKYPAEVTLMLPILFIHHDPDIWGKDAGEFNPGRFADGISNATKYQTSFFPFGWGPRICIGQNFALLEAKMAICTILQRFSFELSPSYIHAPFTVITLHPQHGAQIKLKKI
B2: ZmNSF1: corn NSF1 cytochrome P450 gene/polypeptide, amino acid sequence SEQ ID NO:3 (protein)
chain: MDKAYIAALSAAALFLLHYLLGRRAGGEGKAKAKGSRRRLPPSPPAIPFLGHLHLVKAPFHGALARLAARHGPVFSMRLGTRRAVVVSSPDCARECFTEHDVNFANRPLFPSMRLASFDGAMLSVSSYGPYWRNLRRVAAVQLLSAHRVGCMAPAIEAQVRAMVRRMDRAAAAGGGGVARVQLKRRLFELSLSVLMETIAHTKTSRAEADADSDMSTEAHEFKQIVDELVPYIGTANRWDYLPVLRWFDVFGVRNKILDAVGRRDAFLGRLIDGERRRLDAGDESESKSMIAVLLTLQKSEPEVYTDTVITALCANLFGAGTETTSTTTEWAMSLLLNHREALKKAQAEIDAAVGTSRLVTADDVPHLTYLQCIVDETLRLHPAAPLLLPHESAADCTVGGYDVPRGTMLLVNVHAVHRDPAVWEDPDRFVPERFEGAGGKAEGRLLMPFGMGRRKCPGETLALRTVGLVLATLLQCFDWDTVDGAQVDMKASGGLTMPRAVPLEAMCRPRTAMRGVLKRL
modifications: Zea mays
B3: OsjCYP81A6: rice cytochrome P450 CYP81A6 gene/polypeptide, amino acid sequence SEQ ID NO:1 (protein, listed as Oryza sativa)
chain: MAFLGWAVDIARDSGASSSVVLTCDGYGSALYFSPWDSVPLPATASPDDGFLLPRFPDVCVQRSQFTNHLAPANGTGGGGSRTGVKEEASEVLSWPPTSKQSVRRLEVAEHWYRLYKTDNQRLSPDSQQVSVLAESHCDLASGNWKEISIHHKKMPSSTTTKTTTPSRDAWIVSARSDPFHLLLEAQAPLGIKADALSQIAAVHQSHRNTSHIRELSLAMDNAYIIAILSVAILFLLHYYLLGRGNGGAARLPPGPPAVPILGHLHLVKKPMHATMSRLAERYGPVFSLRLGSRRAVVVSSPGCARECFTEHDVTFANRPRFESQLLVSFNGAALATASYGAHWRNLRRIVAVQLLSAHRVGLMSGLIAGEVRAMVRRMYRAAAASPAGAARIQLKRRLFEVSLSVLMETIAHTKATRPETDPDTDMSVEAQEFKQVVDEIIPHIGAANLWDYLPALRWFDVFGVRRKILAAVSRRDAFLRRLIDAERRRLDDGDEGEKKSMIAVLLTLQKTEPEVYTDNMITALTANLFGAGTETTSTTSEWAMSLLLNHPDTLKKAQAEIDASVGNSRLITADDVTRLGYLQCIVRETLRLYPAAPMLLPHESSADCKVGGYNIPRGSMLLINAYAIHRDPAVWEEPEKFMPERFEDGGCDGNLLMPFGMGRRRCPGETLALRTVGLVLGTLIQCFDWERVDGVEVDMTEGGGLTIPKVVPLEAMCRPRDAMGGVLRELV
B4: OsICYP81 A: CYP450 gene/polypeptide OsICYP81A6, amino acid sequence SEQ ID NO:29 (protein, listed as Oryza sativa)
chain: MDNAYIIAILSVAILFLLHYYLLGRGNGGAARLPPGPPAVPILGHLHLVKKPMHATMSRLAERYGPVFSLRLGSRRAVVVSSPGCARECFTEHDVTFANRPRFESQLLVSFNGAALATASYGAHWRNLRRIVAVQLLSAHRVGLMSGLIAGEVRAMVRRMYRAAAASPAGAARIQLKRRLFEVSLSVLMETIAHTKATRPETDPDTDMSVEAQEFKQVVDEIIPHIGAANLWDYLPALRWFDVFGVRRKILAAVSRRDAFLRRLIDAERRRLDDGDEGEKKSMIAVLLTLQKTEPEVYTDNMITALTANLFGAGTETTSTTSEWAMSLLLNHPDTLKKAQAEIDASVGNSRLITADDVTRLGYLQCIVRETLRLYPAAPMLLPHESSADCKVGGYNIPRGSMLLINAYAIHRDPAVWEEPEKFMPERFEDGGCDGNLLMPFGMGRRRCPGETLALRTVGLVLGTLIQCFDWERVDGVEVDMTEGGGLTIPKVVPLEAMCRPRDAMGGVLRELV

Columns and labels:
OsICYP81A6 = test: Yeast expression system, saflufenacil metabolism (LC/MS/MS); type: in vitro ADME, rice
From the text: Rice cytochrome P450 81A6 was cloned into pESC-His yeast expression vector (Stratagene) using BamHI and SalI. Constructs were transformed into YPH500 yeast strain (Stratagene) using a Yeast Maker Transformation System from Clontech. Positive clones were selected on SD-agar plates (0.7% yeast nitrogen base without amino acids, 2% glucose, 0.13% amino acid drop-out without histidine; plates solidified with 2% agar). Bioconversion of substrates was directly assayed in yeast cells expressing the respective cytochrome P450 gene. Cells were induced in SG-His medium (same composition as SD but with galactose instead of glucose) for 18-24 h (Pompon et al., Methods in Enzymology 272:51-64 (1996); Urban et al., Eur. J. Biochem. 222:[…] (1994)). Afterwards, the BAS800H substrate was added and samples were incubated for an additional 24 h. Samples were analyzed by LC/MS/MS.

Sb01g007420.1 = test: as above; type: in vitro ADME, sorghum; details: yeast cells expressing Sb01g007420.1, 24 h incubation
[1] = tested on: maize, rice, and soybean transgenic systems; test: Saflufenacil tolerance in transgenic plant systems (FIG. 3 legend); type: in vivo; details: in one or more transgenic plant systems
T0 soybean cuttings = test: Soybean T0 cuttings saflufenacil spray test; type: in vivo, Soybean cv Williams 82; details: 0, 25, or 50 g ai/ha saflufenacil + 1% MSO; evaluated 7 days after treatment
Protocol: Soybean cv Williams 82 was transformed as previously described by Siminszky et al., Phytochem Rev. 5:445-458 (2006). After regeneration, transformants were transplanted to soil in small pots, placed in growth chambers (16 hr day/8 hr night; 25° C. day/23° C. night; 65% relative humidity; 130-150 μE m^−2 s^−1) and subsequently tested for the presence of the T-DNA via Taqman analysis. After a few weeks, healthy, transgenic positive, single copy events were transplanted to larger pots and allowed to grow in the growth chamber. An optimal shoot for cutting was about 3-4″ tall, with at least two nodes present. Each cutting was taken from the original transformant (mother plant) and dipped into rooting hormone powder (indole-3-butyric acid, IBA). The cutting was then placed in oasis wedges inside a bio-dome. The mother plant was taken to maturity in the greenhouse and harvested for seed. Wild type cuttings were also taken simultaneously to serve as negative controls. The cuttings were kept in the bio-dome for 5-7 days and then transplanted to 3″ pots and then acclimated in the growth chamber for two more days. Subsequently, the cuttings were transferred to the greenhouse, acclimated for approximately 4 days, and then subjected to spray tests containing 0, 25, and 50 g ai/ha saflufenacil plus 1% MSO. Herbicide injury evaluations were taken at 7 days after treatment.

transgenic maize plants = test: Maize whole plant saflufenacil spray test (T0 and T1); type: in vivo; details: 240 g ai/ha saflufenacil + 1% MSO at 2-4 leaf stage; rated 7 and 14 days after application
Protocol: Immature Embryo Transformation: Immature embryos were transformed according to the procedure outlined in WO2006/136596 to Peng et al. The exception was that a proportion of the embryos—25 in most cases—were placed on media containing saflufenacil and kept in the light for direct selection. The remaining embryos in each experiment were selected on Pursuit as described. Plants were tested utilizing Taqman analysis with the target being the nos terminator which is present in all constructs. Healthy looking plants were sent to the greenhouse for hardening out and subsequent spray testing. As with the BMS cells, RCB958 was utilized as a control both for transformation, saflufenacil selection, and for spray testing.
A total of 82 transgenic maize plants (2 constructs of interest and 1 control construct) were delivered to the greenhouse in tissue culture. The plants were individually transplanted into MetroMix 360 soil in 4″ pots. […]
Sixteen vectors harboring different P450 genes were tested for the ability to increase tolerance to saflufenacil in T0 maize plants. […] Injury rating was evaluated 7 and 14 days after application. FIG. 5 indicates the number of plants from each segregating event that were evaluated and scored for herbicidal injury.

Molecule | conferred tolerance to saflufenacil [1] | level of tolerance to saflufenacil in T0 soybean cuttings (T0 soybean cuttings) | tolerance of segregating T1 maize events (reduced injury scores vs J553 wild type) (transgenic maize plants) | further results
CC(C)N(C)S(=O)(=O)NC(=O)c1cc(-n2c(=O)cc(C(F)(F)F)n(C)c2=O)c(F)cc1Cl [BAS800H, 2-chloro-5-[3,6-dihydro-3-methyl-2,6-dioxo-4-(trifluoromethyl)-1(2H)-pyrimidinyl]-4-fluoro-N-[[methyl(1-methylethyl)amino]sulfonyl]benzamide] |  |  |  | initial content of BAS800H converted into several metabolites (OsICYP81A6; after 24 h incubation in P450-expressing yeast, enzyme not specified (OsICYP81A6 and Sb01g007420.1 named)): 10%; degradation of BAS800H (OsICYP81A6; yeast cells expressing OsICYP81A6, 24 h incubation): catalyzed degradation; degradation of BAS800H (Sb01g007420.1): catalyzed degradation
B1 | conferred tolerance |  |  | 
B2 | conferred tolerance | greatest level of tolerance |  | 
B3 |  | greatest level of tolerance | increased tolerance | 
B4 |  |  | increased tolerance | 
